These results are taken from IntAct's records for PubMed 16303566.

First the molecules themselves.
B1: Gigaxonin (Homo sapiens), Q9H2C0 (parent)
chain: MAEGSAVSDPQHAARLLRALSSFREESRFCDAHLVLDGEEIPVQKNILAAASPYIRTKLNYNPPKDDGSTYKIELEGISVMVMREILDYIFSGQIRLNEDTIQDVVQAADLLLLTDLKTLCCEFLEGCIAAENCIGIRDFALHYCLHHVHYLATEYLETHFRDVSSTEEFLELSPQKLKEVISLEKLNVGNERYVFEAVIRWIAHDTEIRKVHMKDVMSALWVSGLDSSYLREQMLNEPLVREIVKECSNIPLSQPQQGEAMLANFKPRGYSECIVTVGGEERVSRKPTAAMRCMCPLYDPNRQLWIELAPLSMPRINHGVLSAEGFLFVFGGQDENKQTLSSGEKYDPDANTWTALPPMNEARHNFGIVEIDGMLYILGGEDGEKELISMECYDIYSKTWTKQPDLTMVRKIGCYAAMKKKIYAMGGGSYGKLFESVECYDPRTQQWTAICPLKERRFGAVACGVAMELYVFGGVRSREDAQGSEMVTCKSEFYHDEFKRWIYLNDQNLCIPASSSFVYGAVPIGASIYVIGDLDTGTNYDYVREFKRSTGTWHHTKPLLPSDLRRTGCAALRIANCKLFRLQLQQGLFRIRVHSP

The variants in the experiment derive from B1. The settings on record: with tbcb_human TBCB.
In the case of MAEGSAVSDPQHAARLLRALSSFREESRFCDAHLVLDGEEIPVQKNILAAASPYIRTKLNYNPPKDDGSTYKIELEGISVMVMREILDYIFSGQIRLNEDTIQDVVQAADLLLLTDLKTLCCEFLEGCIAAENCIGIRDFALHYCLHHVHYLATEYLETHFRDVSSTEEFLELSPQKLKEVISLEKLNVGNERYVFEAVIRWIAHDTEIRKVHMKDVMSALWVSGLDSSYLREQMLNEPLVREIVKECSNIPLSQPQQGEAMLANFKPRGYSECIVTVGGEERVSRKPTAAMRCMCPLYDPNRQLWIELAPLSMPRINHGVLSAEGFLFVFGGQDENKQTLSSGEKYDPDANTWTALPPMNEARHNFGIVEIDGMLYILGGEDGEKELISMECYDIYSKTWTKQPDLTMVRKIGCYAAMKKKIYAMGGGSYGKLFESVECYDPRTQQWTAICPLKERRFGAVACGVAMELYVFGGVRSREDAQGSEMVTCKSEFYHDEFKRWIYLNDQNLCIPASSSFVYGAVPIGASIYVIGDLDTGTNYDYVCEFKRSTGTWHHTKPLLPSDLRRTGCAALRIANCKLFRLQLQQGLFRIRVHSP [R545C], the “effect of a mutation on the interaction” value was “disrupting interaction”.
